In assay [1] the target is T1, FcRL4, overexpressed on 3T3 cells (UniProt Q96PJ5 20-515, limits assumed).
T1 construct: whole, on cells
T1 sequence (looked up): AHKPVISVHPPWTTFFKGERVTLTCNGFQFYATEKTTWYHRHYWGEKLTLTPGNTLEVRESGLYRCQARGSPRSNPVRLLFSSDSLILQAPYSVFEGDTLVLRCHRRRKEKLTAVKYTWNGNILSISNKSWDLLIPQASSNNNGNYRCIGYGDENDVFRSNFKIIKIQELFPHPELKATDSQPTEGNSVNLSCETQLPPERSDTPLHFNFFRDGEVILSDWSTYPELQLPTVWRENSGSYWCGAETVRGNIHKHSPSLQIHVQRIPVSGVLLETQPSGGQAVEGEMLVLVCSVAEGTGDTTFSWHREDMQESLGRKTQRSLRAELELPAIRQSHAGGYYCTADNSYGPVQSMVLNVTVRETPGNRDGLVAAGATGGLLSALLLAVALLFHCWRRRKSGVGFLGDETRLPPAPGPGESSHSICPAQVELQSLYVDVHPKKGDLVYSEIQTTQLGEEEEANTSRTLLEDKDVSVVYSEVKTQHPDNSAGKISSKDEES
As to the kind of experiment: phage clone on 3T3-FcRL4 cells.

For assay [2], the target named is T2, FcRL6, overexpressed on 3T3 cells (UniProt Q6DN72 20-434, limits assumed).
T2 construct: whole, on cells
T2 sequence (looked up): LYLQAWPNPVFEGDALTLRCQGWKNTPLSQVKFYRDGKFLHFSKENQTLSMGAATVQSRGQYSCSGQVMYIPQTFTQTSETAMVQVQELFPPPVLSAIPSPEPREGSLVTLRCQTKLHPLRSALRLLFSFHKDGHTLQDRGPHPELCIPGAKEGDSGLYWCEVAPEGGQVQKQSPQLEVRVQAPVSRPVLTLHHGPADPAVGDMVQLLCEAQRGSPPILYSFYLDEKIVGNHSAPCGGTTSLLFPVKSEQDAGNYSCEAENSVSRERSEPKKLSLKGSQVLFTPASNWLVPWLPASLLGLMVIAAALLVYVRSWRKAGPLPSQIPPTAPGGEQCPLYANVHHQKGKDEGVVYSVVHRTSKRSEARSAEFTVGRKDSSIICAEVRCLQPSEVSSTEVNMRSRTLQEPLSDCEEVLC
Description: phage clone on 3T3-FcRL6 cells.

B1: ET200-017 (scFv)
scFv: SYVLTQPPSVSVAPGKTARITCGGNNIGSKSVHWYQQKPGQAPVLVVYDDSDRPSGIPERFSGSNSGNTATLSISRVEAGDEADYYCQVWDSSSDHTVFGTGTKVTVLGSRGGGGSGGGGSGGGGSLEMAQVQLQQWGAGLLKPSETLSLTCAVYGGSFSGYYWSWIRQPPGKGLEWIGEINHSGSTNYNPSLKSRVTISVDTSKNQFSLKLSSVTAADTAVYYCARYYPGMDMWGQGTLVTVSSTSGQAGQHHHHHHGAYPYDVPDYAS
notes: screened as phage clone; entry is VL-linker-VH-His tag-HA tag
Take B1: the binding result in assay [1] and in assay [2] was “no binding” each time.

B2: ET200-039 (scFv)
scFv: NFMLTQPHSVSESPGKTVTISCTRSSGSIASNYVQWYQQRPGSSPTTVIYEDNQRPSGVPDRFSGSIDSSSNSASLTISGLKTEDEADYYCQSYDSSNWVFGGGTKLTVLGSRGGGGSGGGGSGGGGSLEMAEVQLVQSGAEVKKPGSSVKVSCKASGGTFSSYAISWVRQAPGQGLEWMGGIIPIFGTANYAQKFQGRVTITADESTSTAYMELSSLRSEDTAVYYCARSNYYYNDYWGQGTLVTVSSTSGQAGQHHHHHHGAYPYDVPDYAS
notes: screened as phage clone; entry is VL-linker-VH-His tag-HA tag; also called ET200-39
B2: the binding result in assay [1] and in assay [2] was “no binding” in each case.

B3: ET200-026 (scFv)
scFv: NFMLTQPHSVSESPGKTVTISCTGSSGSIASNYVQWYQQRPGSAPTTVIYEDNQRPSGVPDRFSGSIDSSSNSASLTISGLKTEDEADYYCQSYDSSNWVFGGGTKLTVLGSRGGGGSGGGGSGGGGSLEMAEVQLVQSGAEVKKPGSSVKVSCKASGGTFSSYAISWVRQAPGQGLEWMGGIIPIFGTANYAQKFQGRVTITADESTSTAYMELSSLRSEDTAVYYCARNNHYYNDYWGQGTLVTVSSTSGQAGQHHHHHHGAYPYDVPDYAS
notes: as for B1
For the molecule B3, the binding result in assay [1] and in assay [2] was “no binding” each time.

B4: ET200-035 (scFv)
scFv: NFMLTQPHSVSESPGKTVTISCTRSSGSIASNYVQWYQQRPGSAPTTVIYEDNQRPSGVPDRFSGSIDSSSNSASLTISGLKTEDEADYYCQSYDSTNWVFGGGTKLTVLGSRGGGGSGGGGSGGGGSLEMAQVQLVQSGAEVKKPGSSVKVSCKASGGTFSSYAISWVRQAPGQGLEWMGGIIPIFGTANYAQKFQGRVTITADESTSTAYMELSSLRSEDTAVYYCARYNYYFNDYWGQGTLVTVSSTSGQAGQHHHHHHGAYPYDVPDYAS
notes: as for B1
As to B4, the binding result in assay [1] and in assay [2] was “no binding” each time.

B5: ET200-022 (scFv)
scFv: QSVVTQPPSVSAAPGQKVTISCSGSSSNIGNNYVSWYQQLPGTAPKLLIYDNNKRPSGIPDRFSGSKSGTSATLGITGLQTGDEADYYCGTWDSSLGAPYVFGTGTKVTVLGSRGGGGSGGGGSGGGGSLEMAEVQLVQSWGGSEQPGRSLRLSCAASGFTFDDYAMHWVRQAPGKGLEWVSGISWNSGSIGYADSVKGRFTISRDNAKNSLYLQMNSLRAEDTAMYYCARYRQVGSAYDSWGQGTLVTVSSTSGQAGQHHHHHHGAYPYDVPDYAS
notes: as for B1
As for B5, the binding result in assay [1] and in assay [2] was “no binding” throughout.

B6: ET200-028 (scFv)
scFv: QSVLTQPPAASGTPGQRVTISCSGGVSNIGSGALNWYQQLPGTAPKLLIYSYNQRPSGVSDRFSGSRSATSASLAISGLQSEDEADYYCATWDDSVNGWVFGGGTKLTVLGSRGGGGSGGGGSGGGGSLEMAQVQLVQSGAEVKKPGDSVKVSCKPSGYNFLNYGINWVRQAPGQGLEWMGWISTYTGNTNYAQKLQGRVTFTTDTSTSTAYMEMRSLRSDDTAVYYCARDLYYYEGVDYWGQGTLVTVSSTSGQAGQHHHHHHGAYPYDVPDYAS
notes: as for B1
B6: the binding result in assay [1] and in assay [2] was “no binding” each time.

B7: ET200-018 (scFv)
scFv: QAVLTQPPSTSGTPGQRVTISCSGSSSNIGRNGVNWYQQLPGAAPKVLIYNDNQRPSGVPDRVSGSQSGSSGTLAIDGLRSEDEADYYCAAWDDSLHGVVFGGGTKLTVLGSRGGGGSGGGGSGGGGSLEMAQVQLVQSGAEVKKPGASVKVSCKVSGYTLNELSMHWVRQAPGKGLEWMGGFDPEDGETIYAQKFQGRVTMTEDTSTDTAYMELSSLRSEDTAVYYCARGGYGDSWGQGTLVTVSSTSGQAGQHHHHHHGAYPYDVPDYAS
notes: as for B1
Regarding B7, the binding result in assay [1] and in assay [2] was “no binding” in each case.

B8: ET200-020 (scFv)
scFv: QSVVTQPPSVSAAPGQKVTISCSGSTSNIGNNDVSWYQQLPGTAPKLLIYDNNKRPSGIPDRFSGSKSGTSATLGITGLQTGDEADYYCGTWDSSVSASWVFGRGTKLTVLGSRGGGGSGGGGSGGGGSLEMAQVQLVQSGAEVKKPGASVKVSCKASGYTFTSYGISWVRQAPGQGLEWMGWISAYNGNTNYPQKLQGRVTMTTDPSTSTAYMELRSLRSDDTAVYYCARSMTSFDYWGQGTLVTVSSTSGQAGQHHHHHHGAYPYDVPDYAS
notes: as for B1
Take B8: the binding result in assay [1] and in assay [2] was “no binding” each time.

B9: ET200-019 (scFv)
scFv: NFMLTQPHSVSESPGKTVTISCTRSSGSIASNYVQWYQQRPGSAPTTVIYEDNQRPSGVPDRFSGSIDSSSNSASLTISGLKTEDEADYYCQSYDSSNSWVFGGGTKLTVLGSRGGGGSGGGGSGGGGSLEMAQVQLVQSGAEVKRPGSSVKVSCTASGGTFSSDAISWVRQAPGQGLEWMGGIIPMFGTANYAQKFQGRVTITADESTSTAYMELSSLRSEDTAVYYCAREGYYYPSAYLGSVLNDISSVYDEWGQGTLVTVSSTSGQAGQHHHHHHGAYPYDVPDYAS
notes: as for B1
Consider B9, for which the binding result in assay [1] and in assay [2] was “no binding” throughout.

B10: ET200-023 (scFv)
scFv: LPVLTQPPSVSVAPGKTARITCGGNNIGSKSVHWYQQKPGQAPVLVVYADSDRPSGIPERFSGSNSGNTATLTISRVEAGDEADYYCQVWDSSSYHNYVFGTGTKVTVLGSRGGGGSGGGGSGGGGSLEMAEVQLVQSGAEVKKPGASVKVSCKASGYTFTSYGISWVRQAPGQGLEWMGWISAYNGNTNYAQKLQGRVTMTTDTSTSTAYMELSSLRSEDTAMYYCARYWGFGVSDRWGQGTLVTVSSTSGQAGQHHHHHHGAYPYDVPDYAS
notes: as for B1
For the molecule B10, the binding result in assay [1] and in assay [2] was “no binding” in each case.

B11: ET200-027 (scFv)
scFv: QSVLTQPPSVSGAPGQGVTIPCTGSSSNIGAGYDVHWYQQLPGTAPKLLIYGNNNRPSGVPDRFSGSRSGSSASLAITGLQAEDEADYYCQSYDSSLSDVVFGGGTKVTVLGSRGGGGSGGGGSGGGGSLEMAEVQLVQSGAEVKKPGATVKISCKVSGYTFTDYYMHWVQQAPGKGLEWMGLVDPEDGETIYAEKFQGRVTITADTSTDTAYMELSSLRSEDTAVYYCARYWSYSFDYLYMPEGNDWWGQGTLVTVSSTSGQAGQHHHHHHGAYPYDVPDYAS
notes: as for B1
Regarding B11, the binding result in assay [1] and in assay [2] was “no binding” in each case.

B12: ET200-021 (scFv)
scFv: QSVLTQPPSVSAAPGQKVTISCSGSNSNIGNNYVSWYQQLPGTAPKLLIYDNNKRPSGIPDRFSGSRSGTSATLGITGLQTGDEADYYCGTWNTTVTPGYVFGTGTKVTVLGSRGGGGSGGGGSGGGGSLEMAEVQLVQSGAEVKKPGASVKVSCKASGYTFTSYGISWVRQAPGQGLEWMGWISAYNGNTNYAQKLQGRVTMTTDTSTSTAYMELRSLRSDDTAMYYCARSVYDLDTWGQGTLVTVSSTSGQAGQHHHHHHGAYPYDVPDYAS
notes: as for B1
For the molecule B12, the binding result in assay [1] and in assay [2] was “no binding” each time.

(Values after patent US20210388081A1 (Memorial Sloan Kettering, published 2021).)
